Measurements: PMC6600415

Molecular target: low-density lipoprotein receptor-related protein 6 (LRP6), O75581

B1: LysRS-DKK2-Fc fusion protein, Q9UBU2 34-259 (Fc fusion)
chain: KLNSIKSSLGGETPGQAANRSAGMYQGLAFGGSKKGKNLGQAYPCSSDKECEVGRYCHSPHQGSSACMVCRRKKKRCHRDGMCCPSTRCNNGICIPVTESILTPHIPALDGTRHRDRNHGHYSNHDLGWQNLGRPHTKMSHIKGHEGDPCLRSSDCIEGFCCARHFWTKICKPVLHQGEVCTKQRKKGSHGLEIFQRCDCAKGLSCKVWKDATYSSKARLHVCQKI
  TOPflash luciferase reporter activity in HEK 293T cells, percent inhibition, two concentrations up to 500 ng/mL (4.2 nM): 47%

B2: TEV-cleaved LysRS-DKK2-Fc (DKK2-Fc released by TEV protease), Q9UBU2 34-259 (Fc fusion)
chain: B1 chain
  TOPflash luciferase reporter activity in HEK 293T cells, percent inhibition; TEV-cleaved LysRS-DKK2-Fc (2): mixed with TEV protease and immediately added to cells: 18%
